Assay type in all cases: cell-based, human
Data set [1] has as its system HepG2 cells. The data set can be described thus: MTT cytotoxicity analysis, liver cancer cells HepG2. Conditions: for IC50: HepG2 liver cancer cells, 48 hours of treatment, Lipofectamine RNAiMAX transfection reagent, MTT, read-out: Median inhibitory concentration IC50; for inhibition of growth and proliferation (cell viability vs control and RNAiMAX group): liver cancer cells HepG2, 6.25-200 nM, 48 hours, FIG. 6-8. As to the method:
(§1) A2780 and HCT-8 cell lines were cultured in RPMI 1640 medium containing 10% FBS and 1% penicillin/streptomycin. HepG2 cell lines were cultured in MEM medium containing 10% FBS and 1% penicillin/streptomycin. All the above cell lines were cultured at 37° C. in a humidified atmosphere containing 5% CO2.
(§2) In the cytotoxicity analysis, exponentially growing cells of each cancer cell line were inoculated at a density of 5000 cells per well in a 100 μL medium in a 96-well microplate and allowed to adhere for 24 hours prior to treatment. Then obtained RNA molecules at successive concentrations with a nucleic acid transfer vector, namely, Lipofectamine™ RNAiMAX transfection reagent (Thermo Fisher Scientific, United States), were added to the cells. After 48 hours of treatment, MTT solution (50 μL per well, 1 mg/mL solution) was added to each well and incubated at 37° C. for 4 hours. Then 200 μL of dimethyl sulfoxide (DMSO) was added, and an optical density of the resulting solution was measured via calorimetry by using SpectraMax 190 microplate reader (Molecular Devices, United States) at 570 nm. Dose-response curves were obtained and IC50 values were calculated via GraphPad Prism 5 (GraphPad, United States). Each experiment was performed three times.
(§3) Before addition of the MTT solution, the inventor determined the cytotoxic effects and IC 50 of the GL1, GL2, GL4, and GL6 mimics at different concentrations of 6.25 nM, 12.5 nM, 25 nM, 50 nM, 100 nM, and 200 nM on A2780, HCT-8 and HepG2 cells. After 48 hours of the treatment of the double-stranded RNA molecules, the cell viability of these cells was compared with that of the control group and the RNAiMAX group. Paclitaxel was used in a comparative example. […] The results were compared with those of the control group and the RNAiMAX group using the transfection agent. For IC50, refer to Table 4. Paclitaxel was used in a comparative example.
(§4) Then the inventor specifically determined the cytotoxic effects and IC50 of the RNA molecules GL2 mimic and different chemically modified GL10, GL11 and GL12 mimics at different concentrations of 6.25 nM, 12.5 nM, 25 nM, 50 nM, 100 nM, and 200 nM on A2780, HCT-8 and HepG2 cells. […] For IC50, refer to Table 5. Paclitaxel was used in a comparative example.

Data set [2] concerns A2780 cells. The experiment in a line: MTT cytotoxicity analysis, ovarian cancer cells A2780. As to conditions: for IC50: A2780 ovarian cancer cells, 48 hours of treatment, Lipofectamine RNAiMAX transfection reagent, MTT, read-out: Median inhibitory concentration IC50; for inhibition of growth and proliferation (cell viability vs control and RNAiMAX group): ovarian cancer cells A2780, 6.25-200 nM, 48 hours, FIG. 6-8. As for the experimental part:
as §1, §2, §3, §4

Data set [3] deals with HCT-8 cells. The experiment in a line: MTT cytotoxicity analysis, colorectal cancer cells HCT-8. Conditions: for IC50: HCT-8 colorectal cancer cells, 48 hours of treatment, Lipofectamine RNAiMAX transfection reagent, MTT, read-out: Median inhibitory concentration IC50; for inhibition of growth and proliferation (cell viability vs control and RNAiMAX group): colon cancer cells HCT-8, 6.25-200 nM, 48 hours, FIG. 6-8. As to the method:
as §1, §2, §3, §4

The values that follow come from patent publication US20250304965A1, “DOUBLE-STRANDED RNA MOLECULE AND PHARMACEUTICAL USE THEREOF” (MACAU UNIVERSITY OF SCIENCE AND TECHNOLOGY, priority 2022, published 2025).

[Ψ] = pseudouridine

B1: GL11 mimic: chemically modified GL2 double-stranded RNA (5-methyluridine); antisense SEQ ID NO: 21, sense SEQ ID NO: 25, length 41 (nucleic acid)
antisense: AUAAGGAAUCUGUAGAAGTUCGAUUCUUCUUGGGCUUACCA
sense: UGGUAAGCCCAAGAAGAAUCGAACUUCUACAGAUUCCUUAU
modifications: RNA, backbone not given here; further chemistry not fully specified
Consider B1, for which the IC50 in data set [1] was 85.3 nM; in data set [2], 17.2 nM; in data set [3], 31.5 nM. The “inhibition of growth and proliferation (cell viability vs control and RNAiMAX group)” value is “have a dose-dependent effect on inhibiting the growth and proliferation” in data set [1]; “have a dose-dependent effect on inhibiting the growth and proliferation” in data set [2]; “have a dose-dependent effect on inhibiting the growth and proliferation” in data set [3].

B2: GL12 mimic: chemically modified GL2 double-stranded RNA (pseudouridine); antisense SEQ ID NO: 22, sense SEQ ID NO: 26, length 41 (nucleic acid)
antisense: AUAAGGAAUCUGUAGAAGUUCGAUUCUUCUUGGGCUUACCA
sense: UGGUAAGCCCAAGAAGAAUCGAACUUCUACAGAUUCCUUAU
modifications: antisense: RNA, [Ψ] at 20, backbone not given here; sense: RNA, backbone not given here
For B2, the values for the IC50 in data set [1], in data set [2] and in data set [3] were 183 nM, 43.7 nM and 32.4 nM, respectively. Further, the “inhibition of growth and proliferation (cell viability vs control and RNAiMAX group)” value in data set [1] was “have a dose-dependent effect on inhibiting the growth and proliferation”; in data set [2] it was “have a dose-dependent effect on inhibiting the growth and proliferation”; in data set [3], “have a dose-dependent effect on inhibiting the growth and proliferation”.
